One experiment addresses 108 of 110 HLA types. Description: cell-based or functional assay.
The target in experiment [1] is the alloreactive alleles (2 of 110 HLA types). Description: cell-based or functional assay.

Bounds are passed on as bounds.

B1: E7-11-28 MGTM (MG-modified TCR E7-11-28) (TCR)
TCR alpha: GQQVMQIPQYQHVQEGEDFTTYCNSSTTLSNIQWYKQRPGGHPVFLIQLVKSGEVKKQKRLTFQFGEAKKNSSLHITATQTTDVGTYFCAGIGSSNTGKLIFGQGTTLQVKPDIQNPDPAVYQLRDSKSSDKSVCLFTDFDSQTNVSQSKDSDVYITDKTVLDMRSMDFKSNSAVAWSNKSDFACANAFNNSIIPEDTFFPSSDVPCDVKLVEKSFETDTNLNFQNLLVIVLRILLLKVAGFNLLMTLRLWS
TCR beta: EPEVTQTPSHQVTQMGQEVILRCVPISNHLYFYWYRQILGQKVEFLVSFYNNEISEKSEIFDDQFSVERPDGSNFTLKIRSTKLEDSAMYFCAITGRVSYEQYFGPGTRLTVTEDLNKVFPPEVAVFEPSKAEIAHTQKATLVCLATGFFPDHVELSWWVNGKEVHSGVSTDPQPLKEQPALNDSRYCLSSRLRVSATFWQNPRNHFRCQVQFYGLSENDEWTQDRAKPVTQIVSAEAWGRADCGITSASYHQGVLSATILYEILLGKATLYAVLVSALVLMAMVKRKDFGSGRAKRSGSG
With B1, the inhibition on target cell growth after 48 h of co-culture (alloreactivity screen) (% target cell inhibition) in the experiment with 108 of 110 HLA types was < 20; in experiment [1] it was > 20.

For the origin of these results see patent US20230272049A1.
